The binders below were run against HLA-A*0301 (human) (assay: inhibition of 125I-labelled standard peptide binding to purified HLA, gel filtration).
In the case of QALLHTANR (Synthetic A3 supermotif peptide) [HER2/neu peptide, position 491, 9 amino acids], the relative binding ratio is reported as 0.0046 ratio (IC50 of standard peptide / IC50 of test peptide). With QVRQVPLQR (Synthetic A3 supermotif peptide) [HER2/neu peptide, position 90, 9 amino acids] the relative binding ratio was 0.0029 ratio (IC50 of standard peptide / IC50 of test peptide). With RILKETELR (Synthetic A3 supermotif peptide) [HER2/neu peptide, position 713, 9 amino acids] the relative binding ratio was 0.0007 ratio (IC50 of standard peptide / IC50 of test peptide). For SSEDCQSLTR (Synthetic A3 supermotif peptide) [HER2/neu peptide, position 208, 10 amino acids], the relative binding ratio was -0.0002 ratio (IC50 of standard peptide / IC50 of test peptide). For TLIDTNRSR (Synthetic A3 supermotif peptide) [HER2/neu peptide, position 182, 9 amino acids], the relative binding ratio was 0.0004 ratio (IC50 of standard peptide / IC50 of test peptide). For TVPWDQLFR (Synthetic A3 supermotif peptide) [HER2/neu peptide, position 479, 9 amino acids], the relative binding ratio was 0.0006 ratio (IC50 of standard peptide / IC50 of test peptide). For VARCPSGVK (Synthetic A3 supermotif peptide) [HER2/neu peptide, position 597, 9 amino acids], the relative binding ratio was 0.01 ratio (IC50 of standard peptide / IC50 of test peptide). For VLIAHNQVR (Synthetic A3 supermotif peptide) [HER2/neu peptide, position 84, 9 amino acids], the relative binding ratio was 0.0033 ratio (IC50 of standard peptide / IC50 of test peptide).

These binders were tested against HLA-A*1101 (human) in the same assay as above.
For QALLHTANR (Synthetic A3 supermotif peptide) [HER2/neu peptide, position 491, 9 amino acids], the relative binding ratio was 0.001 ratio (IC50 of standard peptide / IC50 of test peptide). For QVRQVPLQR (Synthetic A3 supermotif peptide) [HER2/neu peptide, position 90, 9 amino acids], the relative binding ratio was 0.0005 ratio (IC50 of standard peptide / IC50 of test peptide). In the case of RILKETELR (Synthetic A3 supermotif peptide) [HER2/neu peptide, position 713, 9 amino acids], the relative binding ratio is reported as 0.0038 ratio (IC50 of standard peptide / IC50 of test peptide). With SSEDCQSLTR (Synthetic A3 supermotif peptide) [HER2/neu peptide, position 208, 10 amino acids] the relative binding ratio was 0.002 ratio (IC50 of standard peptide / IC50 of test peptide). In the case of TLIDTNRSR (Synthetic A3 supermotif peptide) [HER2/neu peptide, position 182, 9 amino acids], the relative binding ratio is reported as 0.0005 ratio (IC50 of standard peptide / IC50 of test peptide). With TVPWDQLFR (Synthetic A3 supermotif peptide) [HER2/neu peptide, position 479, 9 amino acids] the relative binding ratio was 0.0072 ratio (IC50 of standard peptide / IC50 of test peptide). In the case of VARCPSGVK (Synthetic A3 supermotif peptide) [HER2/neu peptide, position 597, 9 amino acids], the relative binding ratio is reported as -0.0002 ratio (IC50 of standard peptide / IC50 of test peptide). For VLIAHNQVR (Synthetic A3 supermotif peptide) [HER2/neu peptide, position 84, 9 amino acids], the relative binding ratio was 0.0007 ratio (IC50 of standard peptide / IC50 of test peptide).

These binders were tested against T1, HLA-A*1101 (purified HLA class I molecule) (human) (assay: competition vs 125I standard peptide, purified HLA).
T1 construct: Purified MHC molecule
For GVGSPYVSR [HER2/neu peptide, position 776, 9 amino acids], the relative binding ratio was 0.0066 ratio (IC50 standard/IC50 test). HADGGKVPIK [HER2/neu peptide, position 878, 10 amino acids] was tested, and the relative binding ratio was 0.0008 ratio (IC50 standard/IC50 test). In the case of HSCVDLDDK [HER2/neu peptide, position 632, 9 amino acids], the relative binding ratio is reported as 0.0007 ratio (IC50 standard/IC50 test). KIPVAIKVLR [HER2/neu peptide, position 747, 10 amino acids] was tested, and the relative binding ratio was 0.0099 ratio (IC50 standard/IC50 test). KIRKYTMR [HER2/neu peptide, position 681, 8 amino acids] was tested, and the relative binding ratio was 0.0004 ratio (IC50 standard/IC50 test). LACHQLCAR [HER2/neu peptide, position 509, 9 amino acids] was tested, and the relative binding ratio was 0.0003 ratio (IC50 standard/IC50 test). For LALTLIDTNR [HER2/neu peptide, position 179, 10 amino acids], the relative binding ratio was 0.0003 ratio (IC50 standard/IC50 test). LIKRRQQKIR [HER2/neu peptide, position 674, 10 amino acids] was tested, and the relative binding ratio was 0.0001 ratio (IC50 standard/IC50 test). LSPGKNGVVK [HER2/neu peptide, position 1173, 10 amino acids] was tested, and the relative binding ratio was 0.0003 ratio (IC50 standard/IC50 test). For LTLIDTNRSR [HER2/neu peptide, position 181, 10 amino acids], the relative binding ratio was 0.0005 ratio (IC50 standard/IC50 test). With LVHRDLAAR [HER2/neu peptide, position 841, 9 amino acids] the relative binding ratio was 0.0014 ratio (IC50 standard/IC50 test). With MALESILRRR [HER2/neu peptide, position 889, 10 amino acids] the relative binding ratio was 0.0003 ratio (IC50 standard/IC50 test). MIDSECRPR [HER2/neu peptide, position 960, 9 amino acids] was tested, and the relative binding ratio was 0.0006 ratio (IC50 standard/IC50 test).

These binders were tested against HLA-A*0301 (purified HLA class I molecule) (human) (assay: competition vs 125I standard peptide, purified HLA).
In the case of GVGSPYVSR [HER2/neu peptide, position 776, 9 amino acids], the relative binding ratio is reported as 0.001 ratio (IC50 standard/IC50 test). HADGGKVPIK [HER2/neu peptide, position 878, 10 amino acids] was tested, and the relative binding ratio was 0.0003 ratio (IC50 standard/IC50 test). HSCVDLDDK [HER2/neu peptide, position 632, 9 amino acids] was tested, and the relative binding ratio was -0.0002 ratio (IC50 standard/IC50 test). KIPVAIKVLR [HER2/neu peptide, position 747, 10 amino acids] was tested, and the relative binding ratio was 0.0009 ratio (IC50 standard/IC50 test). With KIRKYTMR [HER2/neu peptide, position 681, 8 amino acids] the relative binding ratio was 0.001 ratio (IC50 standard/IC50 test). With LACHQLCAR [HER2/neu peptide, position 509, 9 amino acids] the relative binding ratio was -0.0002 ratio (IC50 standard/IC50 test). In the case of LALTLIDTNR [HER2/neu peptide, position 179, 10 amino acids], the relative binding ratio is reported as -0.0002 ratio (IC50 standard/IC50 test). In the case of LIKRRQQKIR [HER2/neu peptide, position 674, 10 amino acids], the relative binding ratio is reported as 0.0002 ratio (IC50 standard/IC50 test). In the case of LSPGKNGVVK [HER2/neu peptide, position 1173, 10 amino acids], the relative binding ratio is reported as -0.0002 ratio (IC50 standard/IC50 test). LTLIDTNRSR [HER2/neu peptide, position 181, 10 amino acids] was tested, and the relative binding ratio was 0.0002 ratio (IC50 standard/IC50 test). In the case of LVHRDLAAR [HER2/neu peptide, position 841, 9 amino acids], the relative binding ratio is reported as 0.004 ratio (IC50 standard/IC50 test). With MALESILRRR [HER2/neu peptide, position 889, 10 amino acids] the relative binding ratio was 0.0011 ratio (IC50 standard/IC50 test). MIDSECRPR [HER2/neu peptide, position 960, 9 amino acids] was tested, and the relative binding ratio was 0.0017 ratio (IC50 standard/IC50 test).

What follows are binders tested against T2, HLA-A*0201 (human) (assay: competition with 125I-labelled standard peptide 941.01 ([..]) on purified HLA, gel filtration).
T2 construct: also called HLA-A2.1
For GASPGGLREL (Synthetic peptide) [HER2/neu A02 supermotif peptide, position 131, 10 amino acids], the relative binding ratio was 0.0001 ratio (IC50 of standard peptide / IC50 of test peptide). In the case of GATLERPKTL (Synthetic peptide) [HER2/neu A02 supermotif peptide, position 1164, 10 amino acids], the relative binding ratio is reported as 0.0002 ratio (IC50 of standard peptide / IC50 of test peptide). In the case of GAVENPEYL (Synthetic peptide) [HER2/neu A02 supermotif peptide, position 1189, 9 amino acids], the relative binding ratio is reported as 0.0002 ratio (IC50 of standard peptide / IC50 of test peptide). GAYSLTLQGL (Synthetic peptide) [HER2/neu A02 supermotif peptide, position 439, 10 amino acids] was tested, and the relative binding ratio was 0.003 ratio (IC50 of standard peptide / IC50 of test peptide). For GICELHCPAL (Synthetic peptide) [HER2/neu A02 supermotif peptide, position 262, 10 amino acids], the relative binding ratio was 0.0005 ratio (IC50 of standard peptide / IC50 of test peptide). GICLTSTVQL (Synthetic peptide) [HER2/neu A02 supermotif peptide, position 787, 10 amino acids] was tested, and the relative binding ratio was 0.0004 ratio (IC50 of standard peptide / IC50 of test peptide). For GILLVVVLGV (Synthetic peptide) [HER2/neu A02 supermotif peptide, position 660, 10 amino acids], the relative binding ratio was 0.0007 ratio (IC50 of standard peptide / IC50 of test peptide). With GIPAREIPDL (Synthetic peptide) [HER2/neu A02 supermotif peptide, position 925, 10 amino acids] the relative binding ratio was 0.0001 ratio (IC50 of standard peptide / IC50 of test peptide).

— patent US20040018971A1 (published 2004)
